From patent US20140086835A1 (UNIVERSITY OF NORTH CAROLINA AT CHAPEL HILL, published 2014)

Target: T1, recombinant human PSMA (extracellular domain) (human, UniProt Q04609 44-750)
T1 construct: extracellular domain; Bought (R&D Systems); Amine-coupled to a CM5 chip; also called prostate specific membrane antigen
Test: SPR (BIAcore 2000), PSMA on CM5 chip, 1:1 Langmuir fit

T1 sequence (Q04609 44-750): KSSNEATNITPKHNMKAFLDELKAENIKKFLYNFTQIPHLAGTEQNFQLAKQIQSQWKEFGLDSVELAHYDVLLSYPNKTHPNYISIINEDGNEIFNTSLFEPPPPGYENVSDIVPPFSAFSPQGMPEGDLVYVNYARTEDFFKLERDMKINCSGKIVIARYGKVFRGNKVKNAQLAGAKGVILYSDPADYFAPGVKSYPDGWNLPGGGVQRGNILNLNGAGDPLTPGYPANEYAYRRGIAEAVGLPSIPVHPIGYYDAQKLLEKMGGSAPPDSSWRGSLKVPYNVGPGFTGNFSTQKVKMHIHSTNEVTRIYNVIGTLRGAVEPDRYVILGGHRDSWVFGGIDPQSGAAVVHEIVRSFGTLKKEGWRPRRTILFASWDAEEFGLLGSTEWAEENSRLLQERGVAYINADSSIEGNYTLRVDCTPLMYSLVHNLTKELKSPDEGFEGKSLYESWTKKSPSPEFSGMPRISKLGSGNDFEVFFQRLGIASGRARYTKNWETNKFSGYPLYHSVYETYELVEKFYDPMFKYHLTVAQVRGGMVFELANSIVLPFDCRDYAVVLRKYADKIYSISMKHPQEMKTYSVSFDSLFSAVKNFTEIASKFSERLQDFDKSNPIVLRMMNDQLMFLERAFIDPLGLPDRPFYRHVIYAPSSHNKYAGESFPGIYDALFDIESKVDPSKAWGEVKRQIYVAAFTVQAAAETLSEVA

B1: heptameric PSMA-binding peptide targeting ligand (designed binder)
chain: MWQPDTAHHWATLGPQPQPKPQPKPEPEPQPQGGMPPRPLDVLNRSLKSPVIVRLKGGREFRGTLDGYDIHMNLVLLDAEEIQNGEVVRKVGSVVIRGDTVVFVSPAPGGEHHHHHH
notes: Self-assembled homoheptamer; also called PSMA-Heptamer; P^PSMA heptamer
Kd: 20 nM | koff: 1.09e-06 s⁻¹
